According to patent US6506592 (BOARD OF REGENTS OF THE UNIVERSITY OF NEBRASKA, dated 2003):

Biological target: T1, Staphylococcus protein A (Staphylococcus, UniProt P38507 37-477)
T1 construct: Used to remove antibody-antigen complexes in the immunoprecipitation
Test: immunoprecipitation from T2 plant MI52E extract; residual alpha-glucosidase activity in the supernatant
Method: Tobacco leaf extracts to be used for detection of glycosyl hydrolase antigens were concentrated 3-fold by (NH_4)_2 SO_4 precipitation. […] Proteins (Amersham) were transferred to nitrocellulose and incubated. […] Concentrated plant protein extracts were diluted 1:10 in 10 mM tris-Cl pH 7.0. 50 ul of anti-malA antibodies were added to 200 ul of diluted extract and incubated for 2 hours at 4° C. with gentle agitation. […] Blots were soaked with a chemiluminescent substrate solution (Amersham) and results visualized by autoradiography and quantified by densitometry.
The residual activity remaining in the treated samples was then determined by enzyme assay.

- binding result: no binding
B1: Sulfolobus solfataricus alpha-glucosidase (malA protein), recombinant (enzyme)
chain: MQTIKIYENKGVYKVVIGEPFPPIEFPLEQKISSNKSLSELGLTIVQQGNKVIVEKSLDLKEHIIGLGEKAFELDRKRKRYVMYNVDAGAYKKYQDPLYVSIPLFISVKDGVATGYFFNSASKVIFDVGLEEYDKVIVTIPEDSVEFYVIEGPRIEDVLEKYTELTGKPFLPPMWAFGYMISRYSYYPQDKVVELVDIMQKEGFRVAGVFLDIHYMDSYKLFTWHPYRFPEPKKLIDELHKRNVKLITIVDHGIRVDQNYSPFLSGMGKFCEIESGELFVGKMWPGTTVYPDFFREDTREWWAGLISEWLSQGVDGIWLDMNEPTDFSRAIEIRDVLSSLPVQFRDDRLVTTFPDNVVHYLRGKRVKHEKVRNAYPLYEAMATFKGFRTSHRNEIFILSRAGYAGIQRYAFIWTGDNTPSWDDLKLQLQLVLGLSISGVPFVGCDIGGFQGRNFAEIDNSMDLLVKYYALALFFPFYRSHKATDGIDTEPVFLPDYYKEKVKEIVELRYKFLPYIYSLALEASEKGHPVIRPLFYEFQDDDDMYRIEDEYMVGKYLLYAPIVSKEESRLVTLPRGKWYNYWNGEIINGKSVVKSTHELPIYLREGSIIPLEGDELIVYGETSFKRYDNAEITSSSNEIKFSREIYVSKLTITSEKPVSKIIVDDSKEIQVEKTMQNTYVAKINQKIRGKINLE
notes: 693 amino acids, 80.5 kDa subunit; Assayed as produced in transgenic tobacco (T2 plant MI52E extract) and as an E. coli-derived positive control; both come from the same malA coding region; also called malA polypeptide; recombinant alpha-glucosidase
